Some results are limits rather than exact numbers.

The target of experiment [1] is T1, Human ROBO1 RSK mutant overexpressed on HEK293 cells (human, UniProt Q9Y6N7 26-1651).
T1 construct: K137R and R139K already in the entry; also called ROBO1-RSK cells
The experiment can be described thus: flow cytometry, Geo MFI ROBO1-RSK/ROBO2-KSR HEK293 cells, 0.1 µg/ml. (In general: In flow cytometry, cells or beads pass a laser one at a time.)

For experiment [2], the target named is T2, Human ROBO2 overexpressed on HEK293 cells (human, UniProt Q9HCK4 22-1378).
T2 construct: also called ROBO2 cells; native ROBO2
T2 sequence: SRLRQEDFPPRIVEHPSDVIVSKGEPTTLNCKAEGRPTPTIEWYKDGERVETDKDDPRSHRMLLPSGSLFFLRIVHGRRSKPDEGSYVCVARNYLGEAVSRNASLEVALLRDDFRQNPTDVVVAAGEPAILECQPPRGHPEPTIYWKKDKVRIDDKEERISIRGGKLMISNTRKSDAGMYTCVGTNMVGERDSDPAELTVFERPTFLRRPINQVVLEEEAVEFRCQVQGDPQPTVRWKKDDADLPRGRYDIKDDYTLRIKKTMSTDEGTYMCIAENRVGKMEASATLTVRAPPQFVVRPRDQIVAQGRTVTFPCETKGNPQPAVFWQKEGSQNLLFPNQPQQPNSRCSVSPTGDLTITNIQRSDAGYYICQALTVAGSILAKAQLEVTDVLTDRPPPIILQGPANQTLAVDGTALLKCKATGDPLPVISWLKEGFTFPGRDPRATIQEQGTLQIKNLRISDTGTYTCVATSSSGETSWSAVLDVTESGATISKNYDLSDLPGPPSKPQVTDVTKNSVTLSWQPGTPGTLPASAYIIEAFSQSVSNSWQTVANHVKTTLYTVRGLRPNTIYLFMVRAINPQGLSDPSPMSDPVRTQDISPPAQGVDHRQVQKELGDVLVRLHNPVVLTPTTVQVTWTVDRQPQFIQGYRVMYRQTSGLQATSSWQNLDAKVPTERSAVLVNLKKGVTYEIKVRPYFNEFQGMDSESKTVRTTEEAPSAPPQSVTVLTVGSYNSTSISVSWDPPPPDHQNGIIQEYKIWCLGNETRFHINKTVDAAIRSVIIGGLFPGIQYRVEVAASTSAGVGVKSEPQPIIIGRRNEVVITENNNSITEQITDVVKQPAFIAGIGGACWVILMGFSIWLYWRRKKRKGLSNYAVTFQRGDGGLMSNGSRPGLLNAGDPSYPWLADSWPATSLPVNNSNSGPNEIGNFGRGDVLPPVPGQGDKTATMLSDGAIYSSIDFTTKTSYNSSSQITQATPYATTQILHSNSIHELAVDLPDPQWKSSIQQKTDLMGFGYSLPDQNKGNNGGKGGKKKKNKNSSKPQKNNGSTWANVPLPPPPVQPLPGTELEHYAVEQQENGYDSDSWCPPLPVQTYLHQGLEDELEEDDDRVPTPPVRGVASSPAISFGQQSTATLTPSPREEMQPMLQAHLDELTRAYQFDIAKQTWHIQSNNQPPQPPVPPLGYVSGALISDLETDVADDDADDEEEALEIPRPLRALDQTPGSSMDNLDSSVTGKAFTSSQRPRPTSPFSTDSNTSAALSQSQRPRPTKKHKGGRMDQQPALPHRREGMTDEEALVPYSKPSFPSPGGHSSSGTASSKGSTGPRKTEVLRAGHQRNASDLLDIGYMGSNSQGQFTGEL
Description: flow cytometry, Geo MFI ROBO2/ROBO1 HEK293 cells, 0.1 µg/ml. As to the method: Binding of the antibodies was detected using a secondary fluorochrome conjugated anti-human IgG F(ab′)₂ antibody and samples were analyzed on a Fortessa cytometer (BD Biosciences). The fold ROBO2 selectivity was calculated as the geometric mean fluorescence intensity (Geo MFI) with ROBO2 cells/Geo MFI with ROBO1 cells. A fold change higher than 3 was considered to be ROBO2 specific (Table 2, Fold Selectivity). Some affinity matured clones had increased ROBO1 reactivity, for example Abcs 55, CTI-R2-10 and CTIR2-13.
HTRF assays were run with 5 nM d2-labeled SLIT2-N and antibodies were added at 1 nM. […] Antibodies derived from chain (Abcs series) or CDR shuffling (CTIR-2 series) were evaluated in 11-point, 5-fold dilution series with a top concentration of 1500 nM, N.T. = not tested; ^cFold selectivity was calculated as Geometric Mean Fluorescent Intensity (Geo MFI) of ROBO2/Geo MFI of ROBO1 binding. […] Outcomes: results are listed in order of assays listed in the table (left to right), I.A. = Improved Affinity

For experiment [3], the target named is T3, Human ROBO2 Ig1-Ig2-His (human, UniProt Q9HCK4 31-220).
T3 construct: the His tag is named only in the SPR paragraphs; the Octet and ELISA paragraphs print 'ROBO2 Ig1-Ig2' without a tag; also called ROBO2 Ig1-2; Human ROBO2 Ig 1,2
T3 sequence: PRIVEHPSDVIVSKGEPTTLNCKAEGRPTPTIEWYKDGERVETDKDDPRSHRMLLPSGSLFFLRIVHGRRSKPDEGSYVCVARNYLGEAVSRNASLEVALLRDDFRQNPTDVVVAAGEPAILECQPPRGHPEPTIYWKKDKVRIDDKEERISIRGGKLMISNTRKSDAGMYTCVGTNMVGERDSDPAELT
The experiment can be described thus: SPR (Biacore T200), Abcs35 immobilized on a CM5 chip, ROBO2 Ig1-Ig2-His as analyte; column head kdis(1/s). As to the method:
[…] Association and dissociation were followed over time.
Based upon several criteria, Abcs25 and Abcs35 were selected for further characterization. Using flow cytometry, improvement in the binding EC₅₀ to human ROBO2 relative to the parental 93H2 was evaluated. Starting at 6.7 nM, 11-point, 3-fold dilution series were made for each antibody and used to stain HEK293 overexpressing human ROBO2 as described above for the ROBO2 fold selectivity (Example 2). […] In addition to measuring improved binding to human ROBO2, it was important to ensure that high affinity binding to both cynomolgus monkey ROBO2 and rat ROBO2 was maintained. Using HEK293 cells overexpressing either cynomolgus monkey ROBO2 or rat ROBO2, the relative dose-dependent binding of 93H2, Abcs25 and Abcs35 was evaluated as described above. High affinity binding to both cynomolgus monkey and rat ROBO2 was maintained in Abcs25 and Abcs35 (Table 4). […] Briefly, Abcs35 was immobilized to 300 resonance units (RU) on a CM5 chip. Association of ROBO2 Ig1-Ig2-His (ROBO2) was measured over 5 minutes and dissociation was followed for a period of 10 minutes.
(In SPR one partner is held on a chip, and binding of the other changes the refractive index at the surface.)

Experiment [4] addresses T3, Human ROBO2 Ig1-Ig2-His. Description: Octet and SPR, against the parental antibody.

T1 sequence (Q9Y6N7 other isoform, or with tags, fused parts or gaps mutant limits assumed): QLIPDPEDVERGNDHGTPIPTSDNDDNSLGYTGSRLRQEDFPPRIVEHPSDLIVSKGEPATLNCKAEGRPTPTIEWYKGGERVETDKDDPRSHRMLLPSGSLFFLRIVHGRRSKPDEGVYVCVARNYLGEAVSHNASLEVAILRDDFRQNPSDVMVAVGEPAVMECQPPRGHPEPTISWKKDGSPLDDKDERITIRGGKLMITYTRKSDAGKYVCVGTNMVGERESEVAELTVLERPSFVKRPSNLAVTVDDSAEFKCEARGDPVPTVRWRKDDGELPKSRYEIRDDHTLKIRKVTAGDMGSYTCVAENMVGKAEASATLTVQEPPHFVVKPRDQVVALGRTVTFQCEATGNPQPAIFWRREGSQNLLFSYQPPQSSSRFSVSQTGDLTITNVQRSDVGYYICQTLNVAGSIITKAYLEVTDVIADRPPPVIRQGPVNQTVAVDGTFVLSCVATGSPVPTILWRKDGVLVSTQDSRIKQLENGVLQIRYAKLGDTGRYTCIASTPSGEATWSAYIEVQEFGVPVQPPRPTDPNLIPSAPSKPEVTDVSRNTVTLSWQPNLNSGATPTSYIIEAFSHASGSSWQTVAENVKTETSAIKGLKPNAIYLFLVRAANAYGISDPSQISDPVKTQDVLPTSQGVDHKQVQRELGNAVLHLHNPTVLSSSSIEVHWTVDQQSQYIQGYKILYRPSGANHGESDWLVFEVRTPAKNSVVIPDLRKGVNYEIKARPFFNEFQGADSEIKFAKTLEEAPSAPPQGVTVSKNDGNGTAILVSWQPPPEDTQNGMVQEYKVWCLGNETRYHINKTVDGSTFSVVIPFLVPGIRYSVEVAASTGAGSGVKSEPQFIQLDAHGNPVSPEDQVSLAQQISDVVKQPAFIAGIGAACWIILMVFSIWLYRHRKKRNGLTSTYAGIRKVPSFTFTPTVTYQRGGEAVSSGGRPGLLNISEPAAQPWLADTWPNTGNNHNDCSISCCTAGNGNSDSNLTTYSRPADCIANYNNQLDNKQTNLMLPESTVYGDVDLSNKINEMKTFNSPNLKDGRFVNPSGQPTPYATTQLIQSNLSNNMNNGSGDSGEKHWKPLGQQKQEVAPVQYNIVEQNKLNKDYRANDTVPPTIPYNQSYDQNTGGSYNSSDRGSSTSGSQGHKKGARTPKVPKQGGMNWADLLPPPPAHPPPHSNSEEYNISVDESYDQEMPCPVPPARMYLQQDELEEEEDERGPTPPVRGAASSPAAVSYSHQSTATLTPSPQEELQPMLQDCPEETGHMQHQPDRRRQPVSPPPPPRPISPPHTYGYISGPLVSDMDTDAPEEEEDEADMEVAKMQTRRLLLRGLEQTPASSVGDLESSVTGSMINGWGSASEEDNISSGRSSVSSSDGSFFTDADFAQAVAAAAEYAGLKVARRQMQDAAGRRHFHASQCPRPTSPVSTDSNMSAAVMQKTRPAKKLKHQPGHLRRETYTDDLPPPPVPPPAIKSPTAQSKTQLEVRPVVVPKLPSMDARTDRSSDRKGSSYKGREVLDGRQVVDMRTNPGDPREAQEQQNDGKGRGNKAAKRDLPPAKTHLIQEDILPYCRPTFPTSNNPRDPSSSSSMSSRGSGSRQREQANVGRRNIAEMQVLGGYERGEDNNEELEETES

B1: 93H2 (antibody, human IgG1, kappa, V domains shown)
VH: EVQLVQSGAEVKKPGASVKVSCKASGYTFTGYYMHWVRQAPGQGLEWMGWINPNSGATNFPQKFQGRVTMTRDTSITTAYMDLSRLRSDDTAVYYCARESGDDAFDIWGQGTMVTVSS
VL: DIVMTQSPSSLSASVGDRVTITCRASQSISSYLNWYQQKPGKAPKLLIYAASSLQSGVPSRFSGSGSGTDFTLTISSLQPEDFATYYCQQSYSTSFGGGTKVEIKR
notes: also called parental 93H2; 93H2 mAb
Turning to B1, in experiment [1], the “Fold Selectivity for RSK/KSR” value was above 100 fold. Further, the “Fold Selectivity for ROBO2/ROBO1” value in experiment [2] was above 100 fold.

B2: Abcs35 (antibody, human IgG1, kappa)
heavy: EVQLVQSGAEVKKPGASVKVSCKASGYTFTGYYMHWVRQAPGQGLEWMGWINPKNGDTEFPQKFQGRVTMTRDTSITTAYMDLSRLRSDDTAVYYCARESGDDAFDIWGQGTMVTVSSASTKGPSVFPLAPSSKSTSGGTAALGCLVKDYFPEPVTVSWNSGALTSGVHTFPAVLQSSGLYSLSSVVTVPSSSLGTQTYICNVNHKPSNTKVDKKVEPKSCDKTHTCPPCPAPEAAGAPSVFLFPPKPKDTLMISRTPEVTCVVVDVSHEDPEVKFNWYVDGVEVHNAKTKPREEQYNSTYRVVSVLTVLHQDWLNGKEYKCKVSNKALPAPIEKTISKAKGQPREPQVYTLPPSREEMTKNQVSLTCLVKGFYPSDIAVEWESNGQPENNYKTTPPVLDSDGSFFLYSKLTVDKSRWQQGNVFSCSVMHEALHNHYTQKSLSLSPGK
light: DIVMTQSPSSLSASVGDRVTITCRASQSISSYLNWYQQKPGKAPKLLIYAASSLQSGVPSRFSGSGSGTDFTLTISSLQPEDFATYYCQQSVGLFFGGGTKVEIKRTVAAPSVFIFPPSDEQLKSGTASVVCLLNNFYPREAKVQWKVDNALQSGNSQESVTEQDSKDSTYSLSSTLTLSKADYEKHKVYACEVTHQGLSSPVTKSFNRGEC
notes: fully human IgG1; VH of Ab96 with VL of Ab123
Broadly, the koff is a measure of how fast the partners let go of each other. Lower therefore signals slow dissociation. Consider B2, for which the off-rate constant (koff) in experiment [3] was 0.00793 s⁻¹. For the same molecule, in experiment [4], the fold affinity improvement is around 300 fold.
